Experiment: yeast display, Sf9 membrane polyspecificity reagent, FACS + sequencing; frameworks hold sequencing errors
Outline: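 Galactose-induced (36–48 hours) yeast carrying a synthetic nanobody display library were exposed to 10% biotinylated, detergent-solubilized Sf9 membrane reagent at 4 °C for 1 hour. FACS followed streptavidin microbead enrichment, using low and high (top ~1%) gates for expression (anti-HA) and reagent binding (streptavidin). Colony PCR, MiSeq 2 × 250 sequencing and CDR-length filtering followed. Labels for polyreactivity reflect the gate of origin.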

Sequence	polyreactivity (PSR sort gate)
QVQLVESGGGLVQAGGSLRLSCAASGRTFYYYTRGWYRQAPGKERELVAAISRRGGRTYYADSVKGRFTISRDNAKNTVYLQMNSLKPEDTAVYNCAKETPHCPGLGGYDYWGQGTQVTVSS	high polyreactivity
QVQLVESGGGLVQAGGSLRLSCAASGRTFYYYVKGWDRQAPGKERELVAAITIRGGSTYYADSVKGRFTNSRDNAKNTVYLQMNSLKPEDTAVYYCNARGGSSTYGNYYWGQGTQVTVSS	low polyreactivity
QVQLVESGGGLVQAGGSLRLSCAASGRTFYYYVMGWYIQAPGKERELVAAITLRGGSTYYADSVKGRFTISRDNAKNTVYLQMNSLKPEDTAVYYCNARGGSSTYGNYYWGQGTQVTVSS	low polyreactivity
QVQLVESGGGLVQAGGSLRLSCAASGRTIDHYAMGWYRQAPGKERELVAAISTTGGSTYYADSVKGRFTISRDNAKNTVYLQMNSLKPEDTAVYYCAAQLGWWGSGYWGQGTQVTVSS	high polyreactivity
QVQLVESGGGLVQAGGSLRLSCAASGRTIDSYAMGRNRQAPGKERELVAAISWGGGSTYYADSVKGRFTISRDNAKNTVYLQMNSLKPEDTAVYYCAARWNYTEFDYWGQGTQVTVSS	low polyreactivity
QVQLVESGGGLVQAGGSLRLSCAASGRTIGLNGMGWYRQAPGKERELVAGISLSGGSTNYADSVKGRFTISRDNAKNTVYLQMNSLKPEDTAVYYCAADFVYYVVNDFGWSYAYEYWGQGTQVTVSS	low polyreactivity
QVQLVESGGGLVQAGGSLRLSCAASGRTIGVYAMGWYRQAPGKERELVAGITTSGDSTYYADSVKGRFTISRDNAKNTVYLQMNSLKPEDTAVYYCNADVLFFYTPTSEYDYWGQGTQVTVSS	low polyreactivity
QVQLVESGGGLVQAGGSLRLSCAASGRTIGWYTMGWYRQERGKERELVAAISGRGGSTTYADSVKGRFTISRDNAKNTVYLQMNSLKPEDTAVYYCAKRRVRGTTRRYGYWGQGTQVTVSS	high polyreactivity
QVQLVESGGGLVQAGGSLRLSCAASGRTIGYYAMGWYRQAPGKERELVAAITWSGGNTYYADSVKGRFTISRDNAKNTVYLQMNSLKPEDTAVYYCNALYLWGMDYWGQGTQVTVSS	low polyreactivity
QVQLVESGGGLVQAGGSLRLSCAASGRTILGNAMGWYRQAPGKEREFVATISKTGGSTYYADSVKGRFTISRDNAKNTVYLQMISLKPEDTAVYYCAVEIVSYVYGWLVDYDYWGQGTQVTVSS	low polyreactivity
QVQLVESGGGLVQAGGSLRLSCAASGRTIPIYAMGWYRQAPGKERELVAAITRGGRTNYADSVKGRFTISRDNAKNTVYLQMNSLKPEDTAVYYCAARTYGTYLYAEYDYWGQGTQVTVSS	high polyreactivity
QVQLVESGGGLVQAGGSLRLSCAASGRTIRGNARGWYIQAPGKERELVAVNTASGSTTYADSVKGRFTISRDNAKNTVYLQMNSLKSEDTAVYYCAKYVPWYTLWLGGTDRDYWGQGTQVTVSS	low polyreactivity
QVQLVESGGGLVQAGGSLRLSCAASGRTIRHNAMGWYRQARGKERELVAAISRSGGSTYYADSVKGRFTISRDNAKNTVYLQMNSLKPEDTAVYYCAAGYHIIYTPEYYYWGQGTQVTVSS	high polyreactivity
QVQLVESGGGLVQAGGSLRLSCAASGRTIRRNARGWYRQAPGKERELVAGISGSGTITYADSVKGRVTISRDNAKNTVYLQMNSLKPEDTAVYYCAARRKSFYTFYYWGQGTKVTVSS	high polyreactivity
QVQLVESGGGLVQAGGSLRLSCAASGRTIRSYAMGWYSPAPGKERELVAAITGSGGRTYYADSVKGRFTISRDNATNTVYLQMNSLKPEDTAVYYCAARLRGSYDYWGQGTQVTVSS	high polyreactivity
QVQLVESGGGLVQAGGSLRLSCAASGRTIRWYAMGWYRQAPGKERELVAAITWIGGSTYYADSVKGRFTISRDNAKNTVYLQMNSLQPEDTAVYYCATDKDDVSDLGKDYAYFEYDYWGQGTQVTVSS	low polyreactivity
QVQLVESGGGLVQAGGSLRLSCAASGRTISFYAMGWYRQAPGKERELVAAISRSGGSTYYADSVKGRFTISRDNAKNTVYLQMNSLKPEDTAVYYCAARDQYRWYKYDYWGQGTQVTVSS	high polyreactivity
QVQLVESGGGLVQAGGSLRLSCAASGRTISYYAMGWYRQAPGKERELVAAITSSGSRTYYADSVKGRFTISRDNAKNTVYLQMNSLKPEDTAVYYCAAGKPYFRYDSWGQGTQVTVSS	high polyreactivity
QVQLVESGGGLVQAGGSLRLSCAASGRTITKYVMGWYRHAPGKERELVAAITSSGSSTYYADSVKGRFTISRDNAKNTVYLQMNSLKPEDTAVYYCAARRGAPFARQYDYWGQGTQVTVSS	high polyreactivity
QVQLVESGGGLVQAGGSLRLSCAASGRTITYYAMGWYRQAPGKERELVAAISSAGRTNYAVSVKGRFTISRDNAKNTVYLQMNCLKPEDTAVYYCAKRYGWASGYWNSNYGYLYDYWGQGTLVTVSS	high polyreactivity
QVQLVESGGGLVQAGGSLRLSCAASGRTIVYNAMGWYRQAPGKESELVAAITSGGRTYYADSVKGRFTISRDNAKNTVYLQMNSVKPEDTAVYYCATDYYGPDYPLDYWGQGTQVTVSS	low polyreactivity
QVQLVESGGGLVQAGGSLRLSCAASGRTIWVYAMGWYRQAPGKERELVAAIRWSAGTTYYADSVKGRFTISRDNAKNTVYLQMNSLKPEDTAVYYCAADASSRYGVLEVDYWGQGTQVTVSS	high polyreactivity

Sequence	polyreactivity (PSR sort gate)
QVQLVESGGGLVQAGGSLRLSCAASGRTIWYYAKGWYRQAPGKERELVAAITRGGRTNYADSVKGRFTISRDNAKNTVDLQMNSLKPEDTAVYYCAADYRDPAHSYGYWGQGTQVTVSS	high polyreactivity
QVQLVESGGGLVQAGGSLRLSCAASGRTIWYYAMGWYRQAPGNERELVASITRSGGSTYADSVQGRFPISRDNAKNTVYLQMNSLKPQDTAVYYCAVGAVVPGLRRRTYYYWGQGTQVTVSS	high polyreactivity
QVQLVESGGGLVQAGGSLRLSCAASGRTIYSNAMGWYRQPPGKERELVAAITGSSGSTYYADSVKGRFTISRDNAKNTVYLQMNSLKPEDTAVYYCAASCYCSLVRQLRLRGQGTQVTVSS	low polyreactivity
QVQLVESGGGLVQAGGSLRLSCAASGRTIYYYVMGWYRQAPGKERQLVAAISASGGSTRYADSVKGRFTISRDNAKNTVYLQMNSLKPEDTAVYYCAASRRYGGYRFDYWGQGTQVTVSS	high polyreactivity
QVQLVESGGGLVQAGGSLRLSCAASGRTLAFYAMGWYRQAPGKERELVAAITRGGGTYYADSVKGRFTISRDNAKNTVDLQMNSLIPEDTAVYYCNADSGFRWGAFDYWGQGTQLTVSS	low polyreactivity
QVQLVESGGGLVQAGGSLRLSCAASGRTLAPNAMGWYRQAPGKERELVSTITRGGTTNYADSVKGRFTISRDNAKNTVYLQMNSLKPEDTAVYYCAKAHYLGYYQRYDYWGQGTQVTVSS	low polyreactivity
QVQLVESGGGLVQAGGSLRLSCAASGRTLDGNDMGWYRQPPGKERELVAAITVTGSSTYYADSVKGRFTISRDNAKNTVYLQMNSLKPEDTAVYYCAKASGGDVRYSYSYRMDYWGQGTQVTVSS	low polyreactivity
QVQLVESGGGLVQAGGSLRLSCAASGRTLDHYAMGWYRQAPGKERELVAAITSSGGSTYYADSVKGRFTISRDNAKNTVYLQMNSLKPEETAVSYCAADVSSQREWIIEHDYWGQGTQVTVSS	low polyreactivity
QVQLVESGGGLVQAGGSLRLSCAASGRTLDRYAMGWYSPAPGKERELVAAIRWSTGSTYYADSVKGRFTISRDNAKNTVYLQMNSLKPEDTAVYYCAAELSYWWYFAMDYWGQGTQVTVSS	high polyreactivity
QVQLVESGGGLVQAGGSLRLSCAASGRTLDWNAMGWYRQAPGKERELVAAISWSGDSTYYADSVKGRFTISRDNAKNTVYLQMNSLKPEDTAVYYCAARYGRSWGRGYGYWGQGTQVTVSS	low polyreactivity
QVQLVESGGGLVQAGGSLRLSCAASGRTLDWNAMGWYRQAPGKERELVAAISWSGDSTYYADSVKGRFTISRDNAKNTVYLQMNSLKPEDTAVYYCDARYGRSWGRGYGYWGQGTQVTVSS	low polyreactivity
QVQLVESGGGLVQAGGSLRLSCAASGRTLEHNAMGWYRQAPGKERELVAAISGSGGTTYYADSVKGRFTISRDNAKNTVYLQMNSLKPEDTAVYYCNAKLYRSFDYWGQGTQVTVSS	low polyreactivity
QVQLVESGGGLVQAGGSLRLSCAASGRTLEQYAMGWYRQAPRKERELVAAINKSGARTYYADSVKGRFTISRDNAKNSVYLQMNSQKPEDTAVYYCNTVGPSYLFDYWGQGTQVTVSS	high polyreactivity
QVQLVESGGGLVQAGGSLRLSCAASGRTLGLYAMGWYRQAPGKERELVAAITTSGGSTSYADSVKGRFTISRDNAKNTVYLQMNSLKPEDTAVYYCAARYLSYITGTSYYWGQGTQVTVSS	low polyreactivity
QVQLVESGGGLVQAGGSLRLSCAASGRTLGPNAMGWYRQAPGKERELVAAISWSGGSTYYADSVKGRFTISRDNAKNTVYLQMNSLKPEDTAVYYCAAEWYWVYYVPYEYWGQGTQVTVSS	low polyreactivity
QVQLVESGGGLVQAGGSLRLSCAASGRTLGRNAMGWYRQAPGKVRELVASISSGGSTNYAYSVKGSFTISRDNAKNTVYLQMNSQKPEDTEVYYCNKRYRSLYSSGYDYWGQVTQVTVSS	high polyreactivity
QVQLVESGGGLVQAGGSLRLSCAASGRTLGRYAMGWYRHAPGKERELVADISFRGGSTYYADSVKGRFTISRDNAKNTVYLQMNSLKPVDTAVYYCAAVPGPASKYGYWGQGTQVTVSS	high polyreactivity
QVQLVESGGGLVQAGGSLRLSCAASGRTLGVYAMGWSRQAPGKERELVAAIRYRGGITYYADSVKGRFTISRDNAKNTVYLQMNSLKPEDTAVYYCAADWAWDTKSAPAYPRAYDYWGQGTQVTVSS	low polyreactivity
QVQLVESGGGLVQAGGSLRLSCAASGRTLGYYAMGWYRQAPGKERELVAAITSRTGTTYYADSVKGRFTISRDNAKNTVFLQMNSLKPEDTAVYYCNAAYYSTVLGWYLEYDYWGQGTQVTVSS	high polyreactivity
QVQLVESGGGLVQAGGSLRLSCAASGRTLHDYTMGWYRQSPGKERELVAGITSGGRTNYADSVKGRFTISRDNAKNTVYLQMNSLKPEDTADYYCAAAWTWWRLYAVDYWGQGTQVTVSS	high polyreactivity
QVQLVESGGGLVQAGGSLRLSCAASGRTLHYYAMGWYRQAPGKERELVARINWSGGSTYYADSVKGRFTISRDNAKNTVYLQMNCLKPEDTAVYYCARTSYYWSSFDYWGQGTQVTVSS	high polyreactivity
